Laboratory results published in the supplement of paper PMC9112550, “Optimization of the antimicrobial peptide Bac7 by deep mutational scanning” (BMC Biology, 2022).

Tested on: Escherichia coli TOP10
Experiment: shrunken log2 fold change of peptide-encoding DNA abundance (4.5 h post-induction vs induction); higher = less antimicrobial activity (less host growth inhibition)
Conditions: time post-induction: 4.5 h; library: site-saturation at positions 5, 18, 19, 20
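Also: peptides expressed intracellularly from a pBAD plasmid library in pooled LB shake-flask culture, induced with 0.3% L-arabinose, DNA abundance read by NGS, three biological replicates, DESeq2 with apeglm shrinkage.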

In order of rising “shrunken log2 fold change” value:
1. RRIRYRPPRLPRPRPRPIPFPRP  -1.53
2. RRIRTRPPRLPRPRPRPQNHPRP  -1.49
3. RRIRWRPPRLPRPRPRPYHIPRP  -0.96
4. RRIRSRPPRLPRPRPRPNHKPRP  -0.738
5. RRIRLRPPRLPRPRPRPYCKPRP  -0.736
6. RRIRLRPPRLPRPRPRPFIKPRP  -0.66
7. RRIRFRPPRLPRPRPRPFIKPRP  -0.648
8. RRIRYRPPRLPRPRPRPAEYPRP  -0.58
9. RRIRMRPPRLPRPRPRPPYNPRP  -0.575
10. RRIRNRPPRLPRPRPRPPIMPRP  -0.549
11. RRIRMRPPRLPRPRPRPFYHPRP  -0.537
12. RRIRCRPPRLPRPRPRPMFKPRP  -0.536
13. RRIRVRPPRLPRPRPRPHMVPRP  -0.53
14. RRIRWRPPRLPRPRPRPVYKPRP  -0.516
15. RRIRRRPPRLPRPRPRPYNIPRP  -0.464
16. RRIRFRPPRLPRPRPRPSTPPRP  -0.463
17. RRIRHRPPRLPRPRPRPSADPRP  -0.428
18. RRIRERPPRLPRPRPRPRCIPRP  -0.425
19. RRIRFRPPRLPRPRPRPVQVPRP  -0.416
20. RRIRGRPPRLPRPRPRPHNIPRP  -0.386
21. RRIRSRPPRLPRPRPRPSLHPRP  -0.385
22. RRIRCRPPRLPRPRPRPRHNPRP  -0.374
23. RRIRSRPPRLPRPRPRPQYDPRP  -0.352
24. RRIRPRPPRLPRPRPRPDLHPRP  -0.316
25. RRIRFRPPRLPRPRPRPRYKPRP  -0.311
26. RRIRQRPPRLPRPRPRPQFMPRP  -0.302
27. RRIRPRPPRLPRPRPRPYFCPRP  -0.293
28. RRIRVRPPRLPRPRPRPKMNPRP  -0.262
29. RRIRFRPPRLPRPRPRPQVHPRP  -0.262
30. RRIRTRPPRLPRPRPRPTKHPRP  -0.258
31. RRIRERPPRLPRPRPRPVCSPRP  -0.239
32. RRIRNRPPRLPRPRPRPIELPRP  -0.232
33. RRIRTRPPRLPRPRPRPSSCPRP  -0.222
34. RRIRIRPPRLPRPRPRPDEGPRP  -0.22
35. RRIRARPPRLPRPRPRPCDIPRP  -0.2
36. RRIRQRPPRLPRPRPRPMDGPRP  -0.199
37. RRIRFRPPRLPRPRPRPFHQPRP  -0.192
38. RRIRPRPPRLPRPRPRPMYGPRP  -0.182
39. RRIRPRPPRLPRPRPRPNQNPRP  -0.178
40. RRIRHRPPRLPRPRPRPNKGPRP  -0.174
41. RRIRLRPPRLPRPRPRPTAIPRP  -0.17
42. RRIRPRPPRLPRPRPRPYGQPRP  -0.169
43. RRIRIRPPRLPRPRPRPNPIPRP  -0.155
44. RRIRNRPPRLPRPRPRPLTCPRP  -0.149
45. RRIRMRPPRLPRPRPRPPCIPRP  -0.143
46. RRIRCRPPRLPRPRPRPFCHPRP  -0.142
47. RRIRWRPPRLPRPRPRPIIVPRP  -0.138
48. RRIRTRPPRLPRPRPRPQAVPRP  -0.111
49. RRIRYRPPRLPRPRPRPLPQPRP  -0.0827
50. RRIRERPPRLPRPRPRPENDPRP  -0.0725
51. RRIRHRPPRLPRPRPRPRTMPRP  -0.0671
52. RRIRERPPRLPRPRPRPQSPPRP  -0.062
53. RRIRQRPPRLPRPRPRPVRNPRP  -0.0556
54. RRIRMRPPRLPRPRPRPWHVPRP  -0.0444
55. RRIRIRPPRLPRPRPRPCYLPRP  -0.0394
56. RRIRWRPPRLPRPRPRPHELPRP  -0.0349
57. RRIRLRPPRLPRPRPRPANYPRP  -0.032
58. RRIRPRPPRLPRPRPRPSADPRP  -0.0256
59. RRIRQRPPRLPRPRPRPNTAPRP  -0.0235
60. RRIRERPPRLPRPRPRPQSYPRP  -0.0192
61. RRIRQRPPRLPRPRPRPVQYPRP  -0.0137
62. RRIRNRPPRLPRPRPRPKFVPRP  -0.0126
63. RRIRYRPPRLPRPRPRPEVIPRP  -0.01
64. RRIRTRPPRLPRPRPRPMEDPRP  -0.00968
65. RRIRGRPPRLPRPRPRPCYYPRP  -0.00676
66. RRIRFRPPRLPRPRPRPWRTPRP  -0.0041
67. RRIRARPPRLPRPRPRPNCPPRP  -0.0021
68. RRIRRRPPRLPRPRPRPQETPRP  0.00135
69. RRIRPRPPRLPRPRPRPFVIPRP  0.00225
70. RRIRPRPPRLPRPRPRPFIRPRP  0.00477
71. RRIRWRPPRLPRPRPRPLDVPRP  0.00856
72. RRIRIRPPRLPRPRPRPLDNPRP  0.0097
73. RRIRGRPPRLPRPRPRPDQKPRP  0.0127
74. RRIRTRPPRLPRPRPRPFSRPRP  0.0136
75. RRIRARPPRLPRPRPRPESKPRP  0.015
76. RRIRWRPPRLPRPRPRPRKNPRP  0.0168
77. RRIRRRPPRLPRPRPRPEVPPRP  0.0172
78. RRIRFRPPRLPRPRPRPLANPRP  0.0332
79. RRIRSRPPRLPRPRPRPWYTPRP  0.0361
80. RRIRHRPPRLPRPRPRPTFGPRP  0.0378
81. RRIRDRPPRLPRPRPRPKKAPRP  0.0426
82. RRIRFRPPRLPRPRPRPFEGPRP  0.0456
83. RRIRMRPPRLPRPRPRPENAPRP  0.0504
84. RRIRIRPPRLPRPRPRPNHWPRP  0.0534
85. RRIRTRPPRLPRPRPRPNHPPRP  0.0542
86. RRIRGRPPRLPRPRPRPWQQPRP  0.0543
87. RRIRTRPPRLPRPRPRPNQPPRP  0.0619
88. RRIRMRPPRLPRPRPRPNHEPRP  0.0645
89. RRIRFRPPRLPRPRPRPKDQPRP  0.0707
90. RRIRDRPPRLPRPRPRPITTPRP  0.0735
91. RRIRGRPPRLPRPRPRPCSEPRP  0.0744
92. RRIRYRPPRLPRPRPRPGNAPRP  0.0744
93. RRIRSRPPRLPRPRPRPWWCPRP  0.0769
94. RRIRLRPPRLPRPRPRPWWAPRP  0.0811
95. RRIRQRPPRLPRPRPRPTSSPRP  0.088
96. RRIRSRPPRLPRPRPRPGHEPRP  0.101
97. RRIRDRPPRLPRPRPRPCWAPRP  0.125
98. RRIRVRPPRLPRPRPRPRIGPRP  0.131
99. RRIRMRPPRLPRPRPRPMVTPRP  0.131
100. RRIRHRPPRLPRPRPRPEPSPRP  0.137
101. RRIRGRPPRLPRPRPRPPMYPRP  0.145
102. RRIRERPPRLPRPRPRPVSAPRP  0.148
103. RRIRNRPPRLPRPRPRPPQHPRP  0.149
104. RRIRERPPRLPRPRPRPSQAPRP  0.151
105. RRIRPRPPRLPRPRPRPIFEPRP  0.154
106. RRIRSRPPRLPRPRPRPFRVPRP  0.166
107. RRIRLRPPRLPRPRPRPVSEPRP  0.172
108. RRIRPRPPRLPRPRPRPNLFPRP  0.175
109. RRIRLRPPRLPRPRPRPDCIPRP  0.185
110. RRIRGRPPRLPRPRPRPVINPRP  0.199
111. RRIRLRPPRLPRPRPRPRHCPRP  0.232
112. RRIRSRPPRLPRPRPRPVSKPRP  0.236
113. RRIRRRPPRLPRPRPRPAAKPRP  0.267
114. RRIRFRPPRLPRPRPRPPGFPRP  0.268
115. RRIRDRPPRLPRPRPRPRVCPRP  0.372
116. RRIRFRPPRLPRPRPRPQLHPRP  0.381
117. RRIRERPPRLPRPRPRPPPGPRP  0.418
118. RRIRRRPPRLPRPRPRPLLQPRP  0.512
119. RRIRTRPPRLPRPRPRPVSWPRP  0.522
120. RRIRNRPPRLPRPRPRPPRAPRP  0.658
121. RRIRWRPPRLPRPRPRPRADPRP  0.667
122. RRIRIRPPRLPRPRPRPAPRPRP  0.733
123. RRIRFRPPRLPRPRPRPGPSPRP  0.764
124. RRIRGRPPRLPRPRPRPKTNPRP  0.779
125. RRIRARPPRLPRPRPRPDLWPRP  1.51
